T1: human neuromedin U receptor 1 (human, UniProt Q9HB89 24-426)
T1 sequence (looked up): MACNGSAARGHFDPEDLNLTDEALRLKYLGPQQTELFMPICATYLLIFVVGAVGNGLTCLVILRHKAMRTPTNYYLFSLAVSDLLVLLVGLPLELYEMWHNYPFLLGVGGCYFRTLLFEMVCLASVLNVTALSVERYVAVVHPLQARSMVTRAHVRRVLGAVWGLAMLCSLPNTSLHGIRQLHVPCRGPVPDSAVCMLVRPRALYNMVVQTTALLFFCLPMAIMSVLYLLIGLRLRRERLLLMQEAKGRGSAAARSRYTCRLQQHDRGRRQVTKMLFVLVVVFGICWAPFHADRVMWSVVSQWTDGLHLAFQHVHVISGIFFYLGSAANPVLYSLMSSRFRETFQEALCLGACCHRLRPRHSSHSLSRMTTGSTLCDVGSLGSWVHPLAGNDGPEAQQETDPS

B1: C18A-gGlu3-Sar15-AEPipAc-Tyr-Phe-NMeLeu-Nle-Arg-Pro-Arg-Gly-NH2 (peptide)
peptide: EEEXXXXXXXXXXXXXXXXYFLXRPRG
HELM: PEPTIDE1{[CCCCCCCCCCCCCCCCCC(=O)[*:2]].[gGlu].[gGlu].[gGlu].[Sar].[Sar].[Sar].[Sar].[Sar].[Sar].[Sar].[Sar].[Sar].[Sar].[Sar].[Sar].[Sar].[Sar].[Sar].[O=C(CN1CCN(CCN[*:1])CC1)[*:2]].Y.F.[meL].[Nle].R.P.R.G.[am]}$$$$V2.0
SMILES: CCCCCCCCCCCCCCCCCC(=O)N[C@@H](CCC(=O)N[C@@H](CCC(=O)N[C@@H](CCC(=O)N(C)CC(=O)N(C)CC(=O)N(C)CC(=O)N(C)CC(=O)N(C)CC(=O)N(C)CC(=O)N(C)CC(=O)N(C)CC(=O)N(C)CC(=O)N(C)CC(=O)N(C)CC(=O)N(C)CC(=O)N(C)CC(=O)N(C)CC(=O)N(C)CC(=O)NCCN1CCN(CC(=O)N[C@@H](Cc2ccc(O)cc2)C(=O)N[C@@H](Cc2ccccc2)C(=O)N(C)[C@@H](CC(C)C)C(=O)N[C@@H](CCCC)C(=O)N[C@@H](CCCNC(=N)N)C(=O)N2CCC[C@H]2C(=O)N[C@@H](CCCNC(=N)N)C(=O)NCC(N)=O)CC1)C(=O)O)C(=O)O)C(=O)O
B2: C18DA-gGlu3-Sar15-AEPipAc-Tyr-Phe-Leu-Nle-Arg-Pro-Arg-Gly-NH2 (peptide)
peptide: EEEXXXXXXXXXXXXXXXXYFLXRPRG
HELM: PEPTIDE1{[O=C(O)CCCCCCCCCCCCCCCCC(=O)[*:2]].[gGlu].[gGlu].[gGlu].[Sar].[Sar].[Sar].[Sar].[Sar].[Sar].[Sar].[Sar].[Sar].[Sar].[Sar].[Sar].[Sar].[Sar].[Sar].[O=C(CN1CCN(CCN[*:1])CC1)[*:2]].Y.F.L.[Nle].R.P.R.G.[am]}$$$$V2.0
SMILES: CCCC[C@H](NC(=O)[C@H](CC(C)C)NC(=O)[C@H](Cc1ccccc1)NC(=O)[C@H](Cc1ccc(O)cc1)NC(=O)CN1CCN(CCNC(=O)CN(C)C(=O)CN(C)C(=O)CN(C)C(=O)CN(C)C(=O)CN(C)C(=O)CN(C)C(=O)CN(C)C(=O)CN(C)C(=O)CN(C)C(=O)CN(C)C(=O)CN(C)C(=O)CN(C)C(=O)CN(C)C(=O)CN(C)C(=O)CN(C)C(=O)CC[C@H](NC(=O)CC[C@H](NC(=O)CC[C@H](NC(=O)CCCCCCCCCCCCCCCCC(=O)O)C(=O)O)C(=O)O)C(=O)O)CC1)C(=O)N[C@@H](CCCNC(=N)N)C(=O)N1CCC[C@H]1C(=O)N[C@@H](CCCNC(=N)N)C(=O)NCC(N)=O
B3: C20A-gGlu3-Sar15-AEPipAc-Tyr-Phe-NMeLeu-Nle-Orn-Pro-Arg-Gly-NH2 (peptide)
peptide: EEEXXXXXXXXXXXXXXXXYFLXXPRG
HELM: PEPTIDE1{[CCCCCCCCCCCCCCCCCCCC(=O)[*:2]].[gGlu].[gGlu].[gGlu].[Sar].[Sar].[Sar].[Sar].[Sar].[Sar].[Sar].[Sar].[Sar].[Sar].[Sar].[Sar].[Sar].[Sar].[Sar].[O=C(CN1CCN(CCN[*:1])CC1)[*:2]].Y.F.[meL].[Nle].[Orn].P.R.G.[am]}$$$$V2.0
SMILES: CCCCCCCCCCCCCCCCCCCC(=O)N[C@@H](CCC(=O)N[C@@H](CCC(=O)N[C@@H](CCC(=O)N(C)CC(=O)N(C)CC(=O)N(C)CC(=O)N(C)CC(=O)N(C)CC(=O)N(C)CC(=O)N(C)CC(=O)N(C)CC(=O)N(C)CC(=O)N(C)CC(=O)N(C)CC(=O)N(C)CC(=O)N(C)CC(=O)N(C)CC(=O)N(C)CC(=O)NCCN1CCN(CC(=O)N[C@@H](Cc2ccc(O)cc2)C(=O)N[C@@H](Cc2ccccc2)C(=O)N(C)[C@@H](CC(C)C)C(=O)N[C@@H](CCCC)C(=O)N[C@@H](CCCN)C(=O)N2CCC[C@H]2C(=O)N[C@@H](CCCNC(=N)N)C(=O)NCC(N)=O)CC1)C(=O)O)C(=O)O)C(=O)O
B4: C20DA-gGlu3-Sar15-AEPipAc-Tyr-Phe-Leu-Nle-Orn-Pro-Arg-Gly-NH2 (peptide)
peptide: EEEXXXXXXXXXXXXXXXXYFLXXPRG
HELM: PEPTIDE1{[O=C(O)CCCCCCCCCCCCCCCCCCC(=O)[*:2]].[gGlu].[gGlu].[gGlu].[Sar].[Sar].[Sar].[Sar].[Sar].[Sar].[Sar].[Sar].[Sar].[Sar].[Sar].[Sar].[Sar].[Sar].[Sar].[O=C(CN1CCN(CCN[*:1])CC1)[*:2]].Y.F.L.[Nle].[Orn].P.R.G.[am]}$$$$V2.0
SMILES: CCCC[C@H](NC(=O)[C@H](CC(C)C)NC(=O)[C@H](Cc1ccccc1)NC(=O)[C@H](Cc1ccc(O)cc1)NC(=O)CN1CCN(CCNC(=O)CN(C)C(=O)CN(C)C(=O)CN(C)C(=O)CN(C)C(=O)CN(C)C(=O)CN(C)C(=O)CN(C)C(=O)CN(C)C(=O)CN(C)C(=O)CN(C)C(=O)CN(C)C(=O)CN(C)C(=O)CN(C)C(=O)CN(C)C(=O)CN(C)C(=O)CC[C@H](NC(=O)CC[C@H](NC(=O)CC[C@H](NC(=O)CCCCCCCCCCCCCCCCCCC(=O)O)C(=O)O)C(=O)O)C(=O)O)CC1)C(=O)N[C@@H](CCCN)C(=O)N1CCC[C@H]1C(=O)N[C@@H](CCCNC(=N)N)C(=O)NCC(N)=O
B5: C18A-gGlu3-Sar12-AEPipAc-Tyr-Phe-NMeLeu-Nle-Orn-Pro-Arg-Gly-NH2 (peptide)
peptide: EEEXXXXXXXXXXXXXYFLXXPRG
HELM: PEPTIDE1{[CCCCCCCCCCCCCCCCCC(=O)[*:2]].[gGlu].[gGlu].[gGlu].[Sar].[Sar].[Sar].[Sar].[Sar].[Sar].[Sar].[Sar].[Sar].[Sar].[Sar].[Sar].[O=C(CN1CCN(CCN[*:1])CC1)[*:2]].Y.F.[meL].[Nle].[Orn].P.R.G.[am]}$$$$V2.0
SMILES: CCCCCCCCCCCCCCCCCC(=O)N[C@@H](CCC(=O)N[C@@H](CCC(=O)N[C@@H](CCC(=O)N(C)CC(=O)N(C)CC(=O)N(C)CC(=O)N(C)CC(=O)N(C)CC(=O)N(C)CC(=O)N(C)CC(=O)N(C)CC(=O)N(C)CC(=O)N(C)CC(=O)N(C)CC(=O)N(C)CC(=O)NCCN1CCN(CC(=O)N[C@@H](Cc2ccc(O)cc2)C(=O)N[C@@H](Cc2ccccc2)C(=O)N(C)[C@@H](CC(C)C)C(=O)N[C@@H](CCCC)C(=O)N[C@@H](CCCN)C(=O)N2CCC[C@H]2C(=O)N[C@@H](CCCNC(=N)N)C(=O)NCC(N)=O)CC1)C(=O)O)C(=O)O)C(=O)O
B6: C18DA-gGlu3-Sar12-AEPipAc-Tyr-Phe-Leu-Nle-Orn-Pro-Arg-Gly-NH2 (peptide)
peptide: EEEXXXXXXXXXXXXXYFLXXPRG
HELM: PEPTIDE1{[O=C(O)CCCCCCCCCCCCCCCCC(=O)[*:2]].[gGlu].[gGlu].[gGlu].[Sar].[Sar].[Sar].[Sar].[Sar].[Sar].[Sar].[Sar].[Sar].[Sar].[Sar].[Sar].[O=C(CN1CCN(CCN[*:1])CC1)[*:2]].Y.F.L.[Nle].[Orn].P.R.G.[am]}$$$$V2.0
SMILES: CCCC[C@H](NC(=O)[C@H](CC(C)C)NC(=O)[C@H](Cc1ccccc1)NC(=O)[C@H](Cc1ccc(O)cc1)NC(=O)CN1CCN(CCNC(=O)CN(C)C(=O)CN(C)C(=O)CN(C)C(=O)CN(C)C(=O)CN(C)C(=O)CN(C)C(=O)CN(C)C(=O)CN(C)C(=O)CN(C)C(=O)CN(C)C(=O)CN(C)C(=O)CN(C)C(=O)CC[C@H](NC(=O)CC[C@H](NC(=O)CC[C@H](NC(=O)CCCCCCCCCCCCCCCCC(=O)O)C(=O)O)C(=O)O)C(=O)O)CC1)C(=O)N[C@@H](CCCN)C(=O)N1CCC[C@H]1C(=O)N[C@@H](CCCNC(=N)N)C(=O)NCC(N)=O

Target: human neuromedin U receptor 2 (human, UniProt Q9GZQ4 1-415)
Sequence (Q9GZQ4 whole entry): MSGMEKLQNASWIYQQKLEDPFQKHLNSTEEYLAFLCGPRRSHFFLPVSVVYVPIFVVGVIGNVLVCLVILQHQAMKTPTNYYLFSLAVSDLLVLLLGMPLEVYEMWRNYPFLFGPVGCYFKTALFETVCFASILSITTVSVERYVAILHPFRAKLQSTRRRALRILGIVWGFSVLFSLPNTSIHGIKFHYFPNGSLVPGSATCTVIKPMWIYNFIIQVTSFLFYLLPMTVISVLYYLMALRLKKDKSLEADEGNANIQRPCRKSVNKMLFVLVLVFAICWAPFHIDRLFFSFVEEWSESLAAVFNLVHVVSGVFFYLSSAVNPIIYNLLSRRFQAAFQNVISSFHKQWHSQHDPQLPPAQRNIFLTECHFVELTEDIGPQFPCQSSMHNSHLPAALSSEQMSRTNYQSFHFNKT
Test: cell-based or functional assay
Conditions: not given
In the case of B1, the “EC50 (activity as measured in Example 3)” value is reported as 0.046 nM.
With B2 the “EC50 (activity as measured in Example 3)” value was 1.7 nM.
With B3 the “EC50 (activity as measured in Example 3)” value was 0.054 nM.
For B4, the “EC50 (activity as measured in Example 3)” value was 3 nM.
For B5, the “EC50 (activity as measured in Example 3)” value was 0.047 nM.
In the case of B6, the “EC50 (activity as measured in Example 3)” value is reported as 2.1 nM.

Target: T1, human neuromedin U receptor 1
Test: cell-based or functional assay
Conditions: not given
With B1 the “EC50 (activity as measured in Example 3)” value was 0.2 nM.
With B2 the “EC50 (activity as measured in Example 3)” value was 21 nM.
For B3, the “EC50 (activity as measured in Example 3)” value was 0.33 nM.
With B4 the “EC50 (activity as measured in Example 3)” value was 75 nM.
With B5 the “EC50 (activity as measured in Example 3)” value was 0.37 nM.
In the case of B6, the “EC50 (activity as measured in Example 3)” value is reported as 68 nM.

Test system: not given
Test: not given
Conditions: cited from earlier work
In the case of Neuromedin U [native NMU], the “half-life after subcutaneous injection” value is listed as “less than 5 min”.
